Patent US20220235143A1

What was measured:
[1] = target: MUC16 c344 expressed on transfected cells (SKOV3-phrGFP-MUC16c344, A2780-phrGFP-MUC16c344) (human); test: FACS surface staining of A2780-c344 transfectant cells, goat anti-mouse IgG2b-PE detection; same cells: secondary alone 0.68, cells only 0.07; 4H11 on vector control A2780-phrGFP 0.88
[2] = target: MUC16 c114 expressed on transfected SKOV3 cells (SKOV3^c114) (human); test: FACS surface staining of A2780-c114 transfectant cells, goat anti-mouse IgG2b-PE detection; same cells: secondary alone 0.10, cells only 0.01; 4H11 on vector control A2780-phrGFP 0.88
[3] = target: MUC16 c114 expressed on transfected SKOV3 cells (SKOV3^c114) (human); test: FACS surface staining of SKOV3-c114 transfectant cells, goat anti-mouse IgG2b-PE detection; same cells: secondary alone 138, cells only 36.8; 4H11 on vector control SKOV3-phrGFP 162
[4] = target: MUC16 c114 expressed on transfected SKOV3 cells (SKOV3^c114) (human); test: FACS surface staining of A2780-c114 transfectant cells, goat anti-mouse IgG2b-PE detection; same cells: secondary alone 42.3, cells only 24.6; 4H11 on vector control A2780-phrGFP: bar at the level of secondary alone, label overlapped
[5] = target: MUC16 c344 expressed on transfected cells (SKOV3-phrGFP-MUC16c344, A2780-phrGFP-MUC16c344) (human); test: FACS surface staining of A2780-c344 transfectant cells, goat anti-mouse IgG2b-PE detection; same cells: secondary alone 69.8, cells only 33.7; 4H11 on vector control A2780-phrGFP: bar at the level of secondary alone, label overlapped
[6] = target: MUC16 c114 expressed on transfected SKOV3 cells (SKOV3^c114) (human); test: saturation binding of 89Zr-DFO antibody on SKOV3^c114 cells
[7] = target: MUC16 c114 expressed on transfected SKOV3 cells (SKOV3^c114) (human); test: FACS surface staining of SKOV3-c114 transfectant cells, goat anti-mouse IgG2b-PE detection; same cells: secondary alone 6.80, cells only 0.14; 4H11 on vector control SKOV3-phrGFP 2.80
[8] = target: MUC16 c114 expressed on transfected SKOV3 cells (SKOV3^c114) (human); test: Lindmo cell-binding assay on SKOV3^c114 cells
[9] = target: MUC16 c114 expressed on transfected SKOV3 cells (SKOV3^c114) (human); test: saturation binding assay, 89Zr-labeled antibody on SKOV3^c114 cells, cell bound activity (counts); right panel
[10] = target: MUC16 as naturally expressed on ovarian cancer cell lines (OVCAR3; also OVCA-433, CAOV3) (human); test: FACS surface staining of OVCAR3 cells, goat anti-mouse IgG2b-PE detection; same cells: secondary alone 1.95, cells only 0.34
[11] = target: MUC16 c344 expressed on transfected cells (SKOV3-phrGFP-MUC16c344, A2780-phrGFP-MUC16c344) (human); test: FACS surface staining of SKOV3-c344 transfectant cells, goat anti-mouse IgG2b-PE detection; same cells: secondary alone 0.53, cells only 0.04; 4H11 on vector control SKOV3-phrGFP 2.80
[12] = target: MUC16 c344 expressed on transfected cells (SKOV3-phrGFP-MUC16c344, A2780-phrGFP-MUC16c344) (human); test: FACS surface staining of SKOV3-c344 transfectant cells, goat anti-mouse IgG2b-PE detection; same cells: secondary alone 106, cells only 49.2; 4H11 on vector control SKOV3-phrGFP 162
[13] = target: MUC16 c114 expressed on transfected SKOV3 cells (SKOV3^c114) (human); test: Lindmo cell-binding assay, 89Zr-DFO antibody on SKOV3^c114 cells
[14] = target: MUC16 as naturally expressed on ovarian cancer cell lines (OVCAR3; also OVCA-433, CAOV3) (human); test: FACS surface staining of OVCAR3 cells, goat anti-mouse IgG2b-PE detection; same cells: secondary alone 65.8, cells only 24.6

Sequence of MUC16 c114 expressed on transfected SKOV3 cells (SKOV3^c114) (human) (chain, as listed by the source limits assumed): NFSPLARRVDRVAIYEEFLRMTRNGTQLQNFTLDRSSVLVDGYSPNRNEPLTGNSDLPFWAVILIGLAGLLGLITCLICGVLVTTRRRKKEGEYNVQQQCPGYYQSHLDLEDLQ
Sequence of MUC16 c344 expressed on transfected cells (SKOV3-phrGFP-MUC16c344, A2780-phrGFP-MUC16c344) (human) (chain, as listed by the source limits assumed): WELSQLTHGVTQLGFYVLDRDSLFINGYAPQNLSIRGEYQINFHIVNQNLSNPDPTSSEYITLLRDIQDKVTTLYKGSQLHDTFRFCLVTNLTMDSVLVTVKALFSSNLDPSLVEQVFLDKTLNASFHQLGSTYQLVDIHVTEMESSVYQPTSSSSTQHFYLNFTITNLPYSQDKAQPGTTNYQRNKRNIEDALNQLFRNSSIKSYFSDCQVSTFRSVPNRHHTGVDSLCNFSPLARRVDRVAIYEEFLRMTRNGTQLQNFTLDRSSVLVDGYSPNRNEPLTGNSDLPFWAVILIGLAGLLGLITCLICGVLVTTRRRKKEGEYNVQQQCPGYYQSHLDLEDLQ

Q: Which % PE Positive [1] does the source give for 4H11 murine monoclonal antibody here?
A: 93.8%

Q: And the % PE Positive [2]?
A: 71.3%

Q: What about the Geometric Mean PE Fluorescence (Relative Number) [3] of the same substance?
A: 2080

Q: And the Geometric Mean PE Fluorescence (Relative Number) [4]?
A: 544

Q: And the Geometric Mean PE Fluorescence (Relative Number) [5]?
A: 777

Q: What about the Kd [6] of the same substance?
A: 6.4 nM

Q: And the % PE Positive [7]?
A: 95.9%

Q: What about the immunoreactive fraction [8] of the same substance?
A: > 80%

Q: And the EC50 (read off the curve) [9]?
A: 6 nM

Q: And the Kd [9]?
A: 6.37 nM

Q: And the % PE Positive [10]?
A: 98.5%

Q: And the % PE Positive [11]?
A: 41.2%

Q: What about the Geometric Mean PE Fluorescence (Relative Number) [12] of the same substance?
A: 1580

Q: And the Immunoreactive Fraction (%) [13]?
A: 88.3%

Q: What about the Geometric Mean PE Fluorescence (Relative Number) [14] of the same substance?
A: 3050
